# Earlier results as cited in paper PMC11574045, “A cofactor-induced repressive type of transcription factor condensation can be induced by synthetic peptides to suppress tumorigenesis” (The EMBO Journal, 2024).
# pKd: −log10 of the molar value.
# Target: VGLL4 (Homo sapiens) (UniProt Q14135)
# Conditions: cited from earlier work
# TEAD4, sequence (Q15561 whole entry): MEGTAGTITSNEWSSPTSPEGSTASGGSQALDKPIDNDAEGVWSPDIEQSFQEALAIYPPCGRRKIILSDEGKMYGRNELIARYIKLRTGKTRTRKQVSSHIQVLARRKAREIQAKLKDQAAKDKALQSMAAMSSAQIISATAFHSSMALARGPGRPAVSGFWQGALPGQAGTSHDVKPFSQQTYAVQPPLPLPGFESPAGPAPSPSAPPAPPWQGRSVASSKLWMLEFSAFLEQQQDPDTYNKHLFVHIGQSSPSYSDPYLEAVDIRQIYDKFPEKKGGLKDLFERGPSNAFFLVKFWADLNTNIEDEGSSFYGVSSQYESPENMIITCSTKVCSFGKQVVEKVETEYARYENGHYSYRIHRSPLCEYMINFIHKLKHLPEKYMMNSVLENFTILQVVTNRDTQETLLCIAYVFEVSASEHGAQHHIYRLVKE
# VGLL4 (Homo sapiens), sequence (Q14135 whole entry): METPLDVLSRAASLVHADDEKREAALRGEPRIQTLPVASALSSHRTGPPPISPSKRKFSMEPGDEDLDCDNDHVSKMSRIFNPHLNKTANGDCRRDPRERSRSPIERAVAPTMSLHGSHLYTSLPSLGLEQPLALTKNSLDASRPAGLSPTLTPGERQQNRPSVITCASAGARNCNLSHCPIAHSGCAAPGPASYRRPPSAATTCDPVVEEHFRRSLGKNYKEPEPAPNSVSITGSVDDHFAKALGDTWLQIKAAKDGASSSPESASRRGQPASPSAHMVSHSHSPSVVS
substance,measurement,value
TEAD4 (from UniProt Q15561),pKd,8.17
